Test results from patent publication US20030170704A1, “Substance capable of controlling the inclusion of exon 10 of the tau gene, and its therapeutic use against tauopathies” (Max-Planck-Gesellschaft Zur Foerd Der Wissen. E.V., priority 1999, published 2003).

tested on: tau exon 10 inclusion (SV10 minigene); experiment: RT-PCR of tau exon 10 minigene SV10 1:1 co-transfected with splicing regulator cDNA plasmids in COS cells; format: cell-based, human; conditions: 1:1 co-transfection, FIG. 4
Description: Plasmid DNA was purified by cesium chloride banding (Sambrook et al., 1989). The plasmids obtained in Examples 1 and 2 were introduced into cells by the lipofection method (LT1, Panvera).
Plates (100 mm) that had reached ˜30% confluence were transfected with 10 μg of construct DNA or 5 μg of each plasmid for co-transfections. The medium was changed 16 h after transfection, without glycerol shock.
Total RNA was isolated 48 h post-transfection by the TRIzol method (Life Technologies).
For PCR analysis of RNA, 5 mg of total RNA from transiently transfected cells or 1 mg of polyA^+ RNA were reverse transcribed using random hexamer primers and 200 units of reverse transcriptase (RNAase H^− Superscript, Life Technologies), in a total volume of 20 ml for 1 h at 42° C. Part of this reaction mix (5 ml) was then diluted to a final volume of 50 ml, the concentrations of the buffer and dNTPs were adjusted for PCR and the mixture was amplified for 22 cycles. The conditions were: for the endogenous gene, denaturation at 94° C. for 1 min, annealing at 58° C. for 1 min, extension at 72° C. for 1 min; for the constructs, denaturation at 94° C. for 1 min, annealing at 65° C. for 1 min, extension at 72° C. for 1 min.
The primer pair used for the endogenous exon 10 pattern was HT9SmS/1017HT (Table 2b). In the case of transfected cells, the primers INS1 and INS3 (Table 2b) were chosen to only amplify products arising from the constructs.
The RT-PCR experiments were done twice with the polyA^+ RNAs and with total RNAs from three independent transfections, to ensure reproducibility. […] In FIGS. 1-4, the percent of the 10^+ isoform was calculated by scanning the bands from three independent transfections and measuring the areas under the curves (by the IPLab Gel program from Scanalytics).
RT-PCR was performed in a manner as described in Example 4 (using primer pair: INS1/INS3), except that-mammalian cells were analyzed which had been 1:1 co-transfected with tau exon 10 containing minigene constructs (denoted SV 10) and with plasmids containing cDNA of various plicing regulators. […]

Row | Molecule | effect on tau exon 10 inclusion (10+/10- isoform ratio by RT-PCR)
1 | hSWAP: specific splicing regulator Suppressor of White Apricot, expressed from the SV40 early promoter (protein, UniProt Q12872 1-951, looked up) Splicing factor, suppressor …: MYGASGGRAKPERKSGAKEEAGPGGAGGGGSRVELLVFGYACKLFRDDERALAQEQGQHLIPWMGDHKILIDRYDGRGHLHDLSEYDAEYSTWNRDYQLSEEEARIEALCDEERYLALHTDLLEEEARQEEEYKRLSEALAEDGSYNAVGFTYGSDYYDPSEPTEEEEPSKQREKNEAENLEENEEPFVAPLGLSVPSDVELPPTAKMHAIIERTASFVCRQGAQFEIMLKAKQARNSQFDFLRFDHYLNPYYKFIQKAMKEGRYTVLAENKSDEKKKSGVSSDNEDDDDEEDGNYLHPSLFASKKCNRLEELMKPLKVVDPDHPLAALVRKAQADSSTPTPHNADGAPVQPSQVEYTADSTVAAMYYSYYMLPDGTYCLAPPPPGIDVTTYYSTLPAGVTVSNSPGVTTTAPPPPGTTPLPPPTTAETSSGATSTTTTTSALAPVAAIIPPPPDVQPVIDKLAEYVARNGLKFETSVRAKNDQRFEFLQPWHQYNAYYEFKKQFFLQKEGGDSMQAVSAPEEAPTDSAPEKPSDAGEDGAPEDAAEVGARAGSGGKKEASSSKTVPDGKLVKASFAPISFAIKAKENDLLPLEKNRVKLDDDSDDDEESKEGQESSSSAANTNPAVAPPCVVVEEKKPQLTQEELEAKQAKQKLEDRLAAAAREKLAQASKESKEKQLQAERKRKAALFLQTLKNPLPEAEAGKIEESPFSVEESSTTPCPLLTGGRPLPTLEVKPPDRPSSKSKDPPREEEKEKKKKKHKKRSRTRSRSPKYHSSSKSRSRSHSKAKHSLPSAYRTVRRSRSRSRSPRRRAHSPERRREERSVPTAYRVSRSPGASRKRTRSRSPHEKKKKRRSRSRTKSKARSQSVSPSKQAAPRPAAPAAHSAHSASVSPVESRGSSQERSRGVSQEKEAQISSAIVSSVQSKITQDLMAKVRAMLAASKNLQTSAS | inhibited
2 | U2AF65: constitutive splicing factor, expressed from cDNA under the CMV promoter (protein, UniProt P26368 2-475, looked up) Splicing factor U2AF 65 kDa …: SDFDEFERQLNENKQERDKENRHRKRSHSRSRSRDRKRRSRSRDRRNRDQRSASRDRRRRSKPLTRGAKEEHGGLIRSPRHEKKKKVRKYWDVPPPGFEHITPMQYKAMQAAGQIPATALLPTMTPDGLAVTPTPVPVVGSQMTRQARRLYVGNIPFGITEEAMMDFFNAQMRLGGLTQAPGNPVLAVQINQDKNFAFLEFRSVDETTQAMAFDGIIFQGQSLKIRRPHDYQPLPGMSENPSVYVPGVVSTVVPDSAHKLFIGGLPNYLNDDQVKELLTSFGPLKAFNLVKDSATGLSKGYAFCEYVDINVTDQAIAGLNGMQLGDKKLLVQRASVGAKNATLVSPPSTINQTPVTLQVPGLMSSQVQMGGHPTEVLCLMNMVLPEELLDDEEYEEIVEDVRDECSKYGLVKSIEIPRPVDGVEVPGCGKIFVEFTSVFDCQKAMQGLTGRKFANRVVVTKYCDPDSYHRRDFW | inhibited
3 | SRp75: serine/arginine-rich (SR) protein splicing regulator, expressed from cDNA under the CMV promoter (protein, UniProt Q08170 1-494, looked up) Serine/arginine-rich splicing …: MPRVYIGRLSYQARERDVERFFKGYGKILEVDLKNGYGFVEFDDLRDADDAVYELNGKDLCGERVIVEHARGPRRDGSYGSGRSGYGYRRSGRDKYGPPTRTEYRLIVENLSSRCSWQDLKDYMRQAGEVTYADAHKGRKNEGVIEFVSYSDMKRALEKLDGTEVNGRKIRLVEDKPGSRRRRSYSRSRSHSRSRSRSRHSRKSRSRSGSSKSSHSKSRSRSRSGSRSRSKSRSRSQSRSRSKKEKSRSPSKEKSRSRSHSAGKSRSKSKDQAEEKIQNNDNVGKPKSRSPSRHKSKSKSRSRSQERRVEEEKRGSVSRGRSQEKSLRQSRSRSRSKGGSRSRSRSRSKSKDKRKGRKRSREESRSRSRSRSKSERSRKRGSKRDSKAGSSKKKKKEDTDRSQSRSPSRSVSKEREHAKSESSQREGRGESENAGTNQETRSRSRSNSKSKPNLPSESRSRSKSASKTRSRSKSRSRSASRSPSRSRSRSHSRS | inhibited
